Measured values reported in the nanobody polyreactivity screen of Harvey et al. (2022).

Assay: yeast display, Sf9 membrane polyspecificity reagent, FACS + sequencing; frameworks hold sequencing errors
In short: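 Genes from sorted yeast were amplified by colony PCR, read by MiSeq 2 × 250 sequencing and filtered on CDR length. These cells carried a synthetic nanobody library in Saccharomyces cerevisiae BJ5465 and were sorted by FACS into low and high (top ~1%) gates on anti-HA and streptavidin fluorescence. Polyreactivity is labelled according to the gate of origin.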

## QVQLVESGGGLVQAGGSLRLSCAASGSIFEYTGMGWYRQAPGKERELVAAITTTGTTDYADSVKGRFTISRDNAKNTVYLQMNSLKPEDTAVYYCAADYTYYYKVEYDYWGQGTQVTVSS
  polyreactivity (PSR sort gate): low polyreactivity

## QVQLVESGGGLVQAGGSLRLSCAASGRIFRYKAMGWYRQAPGKERELVAAISGSGGSTYYADSVKGRFTISRDNAKNTVYLQMNSLKPEDTAVYYCNALYWIFNHGGYDYWGQGTQVTVSS
  polyreactivity (PSR sort gate): low polyreactivity

## QVQLVESGGGLVQAGGSLRLSCAASGSTFWFYAMGWYRQAPGKERELVAVISNSGSTYYADSVKGRFTISRDNAKNTVYLQMNSLKPEDTAVYYCAAYAYQYRFSGYGYWGQGTQVTVSS
  polyreactivity (PSR sort gate): low polyreactivity

## QVQLVESGGGLVQAGGSLRVSCAASGNTFGYFAMGWYRQAPGKERELVAAMSGSGGRTYYAASVKGRFTISRDNAKNTVDLQMNILKPEATAVYYCNAVYYHVVDFDYWGQGTQVTVSS
  polyreactivity (PSR sort gate): high polyreactivity

## QVQLVESGGGLVQAGGSLRLSCAASGFILSDNAMGWYRQAPGKEREFVAAITSSGGSTHYADSVKGRFTISRDNAKNTVYLQMNSLKPEDTAVYYCAVGRPYWYDVWSFVSHYDYWGQGTQVTVSS
  polyreactivity (PSR sort gate): low polyreactivity

## QVQLVESGGGLVKAGGSLRLSCAASGRTFSRYAMGWYRQAPGTEGEVVAAISYSGASTYYADSVKGRFTISRDNAKNTVYLQMNSLKPEDTAVSYCAARAPGPAPPQIRYGYWGQGTQVTVSS
  polyreactivity (PSR sort gate): high polyreactivity

## QVQLVESGGGLVQAGGSLRLSCAASGFIFDSYAMGWYRQAPGKERELVAAISDGSSTYADSVKGRFTISRDNAKNTVYLQMNSLKPEDTAVYYCAAGVSTWWSTYDYWGQGTQVTVSS
  polyreactivity (PSR sort gate): high polyreactivity

## QVQLVESGGGLVQAGGSLRLSCAASGNTFYSYAMGWYRPAPGKERELVAAITWGGRTKYADSVKGRFTISRDNAKNTVYLQMNSLKPEDTAVYYCAARLYHGKTKYDYWGQGTQVTVSS
  polyreactivity (PSR sort gate): high polyreactivity

## QVQLVESGGGLVQAGGSLRLSCAASGSNFSRYAMGWYTQAPGKERELVAAISKSGGSTYYADSVKGRFTISRDNAKNTVYLEMNSLIPEDTAVYYCNARDSPVQRRAEPYGYWGQGTQVTVSS
  polyreactivity (PSR sort gate): high polyreactivity

## QVQLVESGGGLVQAGGSLRLSCAASGFTFKSYAMGWYRQAPGKERELVAGISRNGGRTYYADSVKGRFTISRDNAKNTVYLQMNSLKPEDTAVYYCAARIYTSRDNYWGQGTQVTVSS
  polyreactivity (PSR sort gate): high polyreactivity

## QVQHVESGGGLVQAGGSLRLSCAASGRIFEIYAMGWYRPAPGKERYLVAAISWRGVSTYYADSVKGRFTISRDYAKNTVYLQMNSLKPEDTAVFYCNNDVDYFWYVEYDYWGQGTQVTVSS
  polyreactivity (PSR sort gate): low polyreactivity

## QVQLVESGGGLVQAGGSLRLSCASSGRTFYRYAMGWYRQAPGKERELVASITRRGGSTYYADSVKGRFTISRDNAKNTVYLQMNSLKPEDTAVYYCAKHSWPLDGGDYWGQGTQVTVSS
  polyreactivity (PSR sort gate): low polyreactivity

## QVQLVESGGGLVQAGGSLRLSCAASGSIFYSYAMGWYRQAPGKERELVAVITRGGSTNYADSVKGRFTISRDNAKNTVYLQMNSLKPEDTAVYYCNKDRYGKVFRYPPYYRSSPYDYWGQGTQVTVSS
  polyreactivity (PSR sort gate): high polyreactivity

## QVQLVESGGGLVQAGGSLRLSCAASGRTFPGYAMGWYRQAPGKETELVATISSADSTNYADSVKGRFTISRDNAKNTVYLQMNSLKPEDTAVYYCAERYGRNGAAAQYTGWYRYDYWGQGTQVTVSS
  polyreactivity (PSR sort gate): low polyreactivity

## QVQLVESGGGLVQAGGSLRLSCAASGRIFDNYAMGWYRQAPGKERELVAAITYIDSGTYYADSVKGRFTISRDNAKNTVYLQMNSLKPEDTAVYYCAVRLNSDSKRKTQKFGYWGQGTQVTVSS
  polyreactivity (PSR sort gate): low polyreactivity

## QVQLVESGGGLVQAGGSLRLTCAASGRIFWINDMVWNRQAPGKESELVAAIRSIGGSTYYADSVKGRFRISRDNAKNTVYLQMNSLKPEDTSVYYCAAKSSPKFRGRYYYWGQGTQVTVSS
  polyreactivity (PSR sort gate): low polyreactivity

## QVQLVESGGGLDQAGGSLRLSCAASARIYGYYANGWYRQAPGKERELVAAINSGGSTYYADSVKGRFTISRDNAKNTVYLQMNSLKPEDTAVYYCAAYKFSVHGYDYWGQGTQGTVSS
  polyreactivity (PSR sort gate): high polyreactivity

## QVQLQESGGRLVQASGSIFHEPNMGWHRQAPGKERELVATISDGAITNYADSVKGRFTISRDNAKNTVYLQMNSLIPEDTAVYYCAATGGLNGALSRLEYWGQGTQVSVSS
  polyreactivity (PSR sort gate): high polyreactivity

## QVQLVESGRGLFQEGGSLRLSCAPSGFIFGKYAMGWYRQAPGTEREFVAAITRNGGSTYYADSVKGRVTISRDNAKNTVYLQMNSLKPDDTAVYYCNADRGYRRRTGMDDWGQVTQVTVSS
  polyreactivity (PSR sort gate): low polyreactivity

## QVQLVESGGGLVQAGGSLRLSCAGSGSTFQRYGMGWYRQAPGKEREFVAAISTSGGITYYADSVKGRFTISRDNAKNTVYLQMNSLKPEDTAVYYCAARTARHVRYWAGWRDYWGQGTQVTVSS
  polyreactivity (PSR sort gate): high polyreactivity

## QVQLVESGGGLVQAGGSLRLSCAASGYTIDGYAMGWYRQAPGKERELVAGISSAGTTNYADSVKGRFTISRDNAKNTVYLQMNSLKPEDTAVYYCNKDYSTYWLYTWQITVADDYWGQGTQVTVSS
  polyreactivity (PSR sort gate): low polyreactivity

## QVQLVESGGGLVQAGGSLRLSCAASGNTLTYNVMGWYRQAPGKDWDLVAAISGRGGRTYYADSVKGRFTISRDNAKNTVYLQMNSLKPEDTAVYYCAATSRNGESGGFYYWGQGTQVTVSS
  polyreactivity (PSR sort gate): high polyreactivity

## QVQLVESGGGLVQAGGSLRLSCAASGITFPRYAMGWYRQAPGKERELVARITSGGRTNYADSVKGRFTISRDNAKNTVYLQMYSLKPEDTAVYYCNAVGWVRSQVRLGYWGQGTQVTVSS
  polyreactivity (PSR sort gate): high polyreactivity

## QVQLVESGGGLVQAGGSLRLSCAASGRIFQYYAMGWYRQEPGKERELVAAISGSGGRTYYADSVKGRFTISRDNAKNTVYLQMNSLKPEDTAVYYCNAVYRYYPFDYWGQGTQVTVSS
  polyreactivity (PSR sort gate): high polyreactivity

## QVQLVESGGGLVQAGGSLRLSCAASGSIFRVYAMGWYRQAPGKERELVAAISVSGGSTNYADSVKGRFTISRDNAKNTVYLQMNSLKPEDTAVYYCNRKQQVSSELDYWGQGTQVTVSS
  polyreactivity (PSR sort gate): low polyreactivity

## QVQLVESGGGVVQAGGSLRLSCAASGSIFPINAMGWYRQAPGKERELVAAITSGGSTNYADSVKGRFTISRDNAKNTVYLQMNSLKPEDTAVYYCAADWRYWRWAFDYWGQGTQVTVSS
  polyreactivity (PSR sort gate): high polyreactivity

## QVQLVESGGGLVQAGGSLRLSCAASGRTFVFNAMGWYRQAPGKERELVAAITISGGSTYYADSVKGRFTISRDNAKNTVYLQMNSLKPEDTAVYYCNADSKIEVFSYIYDYWGQGTQVTVSS
  polyreactivity (PSR sort gate): high polyreactivity

## QVQLVESGGGLVQAGGSLRLSCAASGFTFGHYAMGWYRQAPGKERELVAAISRSGGTTSYADSVKGRFTISRDNAKNTVYLQMNSLKPEDTAVYYCNKDYIWARYGGGRDYWGQGTQVTVSS
  polyreactivity (PSR sort gate): low polyreactivity

## QVQLVESGGGLVQAGGSLRLSCAASGRIFNGYPIGWYIQAPGKEREFVATISRSGGCTYYADSVKGRFTISRDNAKNTVYLQMISLKPEDTAVYYCAKTYPAKWEYDYWGQGTQVTVSS
  polyreactivity (PSR sort gate): low polyreactivity

## QVQLVESGGGLVQAGGSLRVSCAASGSIFRFHVMGWYRQAPGKERELVAAITRGDSTNYADSVKGRFTIPRDNAKNTVYLHMNSLKPEATAVYYCATKTPGWGIFDYWGPGTQVTVSS
  polyreactivity (PSR sort gate): low polyreactivity

## QVQLVESGGGLVQAGGSLRLSCAASGRTFGRNVMGWYRQAPGKERELVAAISRSGGSTYYADSVKGRFTISRDNAKNTVYLQINSLKPEDTAVYYCAAYSVGDYYWGQGTQVTVSS
  polyreactivity (PSR sort gate): high polyreactivity

## QVQLVESGGGLVQAGGSLRLSCAASGGIFNYYAMGWYRQAPGKERELVAAISASGGSTYYADSVKGRFTISRDNAKNTVYLQMNSLKPEDTAVYYCAAGLPYGYGYDYWGQGTQVTVSS
  polyreactivity (PSR sort gate): low polyreactivity

## QVQLVETGGGLVQAGGSLRLSCADSGRIFRYNAMGWYRHAHGKERELVAAITLSTGSTYYADSVKGRFTISRDNAKNTVYLQMNSLKPEDTAVYYCAARIDGRTYARRVYYWGQGTQVTLSS
  polyreactivity (PSR sort gate): high polyreactivity

## QVQLVESGGGFVQAGGSLRLSCAASGIIFEYYTMGWYRQAPGKERELVASINYDGDSTYYADSVKGRFTISRDNAKNTVYLQMNSLKPEDTAVYYCSAEFYYVYSSFGHYYWGQGTQVTVSS
  polyreactivity (PSR sort gate): low polyreactivity

## QVQLVESGGGLVPAGGSLRLSCAASGSIFPVYAMGWYRQAPGKERELVASISTGGSTYYADSVKGRFTISRDNAKNTVYLQMNSLKPEDNAVYYCDATGWAYGYGYWGQGTQVTVSS
  polyreactivity (PSR sort gate): low polyreactivity

## QVQHVESGGGLVQAGGSLPLSCAASGITFSKYAMGWYRQAPGKERELVAAITRSGGSTYYADSVKGRFTISRDNAKNTVYLQMNSLKPEDTAVYYCAAKRRERYGQTYGYWGQGTQVTVSS
  polyreactivity (PSR sort gate): high polyreactivity

## QVQLVESGGGLLQAGGSLRLSCAASGLIFVVNDMGCYTQAPGKERELVAAISYSGSSTYGDSVKGRFTISRDNAKNTVYLQMNSMNPEDTAVYYCARGSTVRTRGVGYWGQGTLVTVSS
  polyreactivity (PSR sort gate): low polyreactivity

## QVQHVESGGGLVHAGGSLRLSCASSGSIFYPYAMGWYRQAQGKERELVAAIRNGGSTYYTDSVKGRFTISRDNAKNTVYLQMNSLKPEDTAVYYCAASVRRRHPFEYWGQGTQVTVSS
  polyreactivity (PSR sort gate): high polyreactivity

## QVQLVESGGGLVQAGGSLRLSCAASGSIFSGYAMGWYRQAPGKERELVAAISTSSVRTYYADSVKGRFTISRDNAKNTVYLQMNSLKPEDTAVYYCAARDGGSYTPMYYWGHGTQVTVSS
  polyreactivity (PSR sort gate): high polyreactivity

## QDQLVESGGGLVQAGGSLRLSCAASGFTFNWKDMGWYRQAPGKERELVAAISGGASTYYADSVKGRFTISRDNAKNTVYLQMNSLKPEDTAVYYCAADLDEWGYLFDYWGQGTQVTVSS
  polyreactivity (PSR sort gate): low polyreactivity

## QVQLVESGGGLVQAGGSLRLSCAASGITFYRYAMGWYRQAPGKEREFVAAITWGSTYYADSVKGRFTISRDNAKNTVYLQMTSLKPEDTAVYYCNKKGYTVGATVGYWGQGTQVTVSS
  polyreactivity (PSR sort gate): low polyreactivity

## QVQLVESGGGLVQAGGSLRLSCAASGRIFRRYTMGWYRQAPGKERELVAAISSGGSTYYADSVKGRFTISRDNAKNTVYLQMNSLKPEDTAVYYCNADSRSQPYYPEFDYWGQGTQVTVSS
  polyreactivity (PSR sort gate): low polyreactivity

## QVQLVESGGGLVQAGGSLRLSCAASGRILSANAMGWYRQAPGKERELVAAITYSGDNTYYADSVKGRFTISRDNAKNTVYLQMNSLKPEDTAVYYCAREFQVDGGEEDYWGQGTQVTVSS
  polyreactivity (PSR sort gate): low polyreactivity
